B1: Tixagevimab Biosimilar (antibody, V domains shown)
VH: QMQLVQSGPEVKKPGTSVKVSCKASGFTFMSSAVQWVRQARGQRLEWIGWIVIGSGNTNYAQKFQERVTITRDMSTSTAYMELSSLRSEDTAVYYCAAPYCSSISCNDGFDIWGQGTMVTVSS
VL: not shown
B2: Casirivimab (antibody, V domains shown)
VH: QVQLVESGGGLVKPGGSLRLSCAASGFTFSDYYMSWIRQAPGKGLEWVSYITYSGSTIYYADSVKGRFTISRDNAKSSLYLQMNSLRAEDTAVYYCARDRGTTMVPFDYWGQGTLVTVSS
VL: DIQMTQSPSSLSASVGDRVTITCQASQDITNYLNWYQQKPGKAPKLLIYAASNLETGVPSRFSGSGSGTDFTFTISGLQPEDIATYYCQQYDNLPLTFGGGTKVEIK
B3: Imdevimab (antibody, V domains shown)
VH: QVQLVESGGGVVQPGRSLRLSCAASGFTFSNYAMYWVRQAPGKGLEWVAVISYDGSNKYYADSVKGRFTISRDNSKNTLYLQMNSLRTEDTAVYYCASGSDYGDYLLVYWGQGTLVTVSS
VL: QSALTQPASVSGSPGQSITISCTGTSSDVGGYNYVSWYQQHPGKAPKLMIYDVSKRPSGVSNRFSGSKSGNTASLTISGLQSEDEADYYCNSLTSISTWVFGGGTKLTVL

Each binder was assayed against Wild type spike RBD (UniProt P0DTC2) (SARS-CoV-2, UniProt P0DTC2 319-541).
B1 gave a Kd of 0.6 nM.
For B2, the Kd was 0.8 nM.
Work on B3 yielded a Kd of 65 nM.

— PMC9672333 (2022)
